Assay results from US20090275502A1, “METHODS AND COMPOSITIONS FOR ENHANCING DEVELOPMENTAL POTENTIAL OF OOCYTES AND PREIMPLANTATION EMBRYOS” (MOUNT SINAI HOSPITAL, priority 2005, published 2009).

How the values were obtained:
Type in all cases: cell-based, mouse
FVB oocytes [1] = test: Reactive oxygen species (H2DCFDA) content of FVB oocytes; conditions: co-treatment of FVB oocytes; inhibitor 2 μg ml^−1, 30 min; data not shown
Procedure: Reduced glutathione (GSH) content: Quantitation of cellular GSH was assayed by use of monochlorobimane (Molecular Probes, Eugene, Oreg.), a cell-permeant dye that becomes fluorescent upon conjugation to thiol groups (Nasr-Esfahani and Johnson 1992). One group of untreated oocytes served as a control for measuring baseline GSH levels, whereas two other groups of oocytes were treated with I mM hydrogen peroxide (Sigma). For the latter, one group was exposed to hydrogen peroxide for 90 min (oxidative insult) whereas the second group was incubated with hydrogen peroxide for 30 min and transferred to fresh culture medium without hydrogen peroxide for an additional 60 min (recovery after oxidative insult). During the last 15 min of incubation, monochlorobimane was added to a final concentration of 1 mM, after which the oocytes were washed in fresh culture medium. Imaging and micrograph analyses were then conducted using a deconvolution microscope equipped with a cyan fluorescent protein filter. The average fluorescence intensities were tabulated on a per oocyte basis, and the data were then compiled per group. Reactive oxygen species: Formation of ROS was determined through the use of 2′,7′-dichlorodihydrofluorescein diacetate (H2DCFDA; Molecular Probes) as described (Yang et al. 1998). The H2DCFDA dye is membrane permeant, and upon entering the cell the acetate groups are hydrolyzed, creating a membrane impermeant form of the dye (H2DCF). Endogenous ROS oxidize this polar form of the dye to a quantifiable fluorogenic compound (DCF). Oocytes were mixed with a freshly prepared solution of 0.01 M H2DCFDA and incubated for 15 min. After extensive washing in fresh culture medium, imaging was carried out using a deconvolution microscope with a FITC filter. Total light intensity for each optical section and average light intensity for each oocyte were determined using the Delta Vision Software Analysis program. In order to determine baseline fluorescence, control oocytes (unstained) were incubated with an appropriate volume of vehicle (DMSO) prior to imaging. […]

FVB oocytes [2] = test: Electron microscopy of mitochondrial ultrastructure in FVB oocytes; conditions: 10 mM, 3 h; versus vehicle
Procedure: Electron microscopy: Oocytes were cultured without or with pyruvate (10 mM) for 3 h prior to being fixed for EM tomography. The oocytes were embedded in agarose and prepared for tomography using conventional protocols for good structural preservation (Ricci et al. 2004). To survey the preservation quality of the oocytes, thin-sectioned materials (−80 nm) were examined using a JEOL 1200FX electron microscope. Three-dimensional reconstructions of portions of the cell containing mitochondria were generated using standard techniques (Perkins et al. 2003). Sections with a thickness between 300-500 nm were cut out, and stained for 30 min in 2% aqueous uranyl acetate, followed by 30 min in lead salts. Next, fiducial cues consisting of 20 nm colloidal gold particles were deposited on both sides of each section.
For each reconstruction, a series of images at regular tilt increments were collected with a JEOL 4000EX intermediate-voltage electron microscope operated at 400 kV. In order to limit anisotropic specimen thinning during image collection, the specimens were irradiated before initiating a tilt series. […] Tilt series were recorded at a magnification of 20,000× with an angular increment of 2° from −60° to +60° about an axis perpendicular to the optical axis of the microscope using a computer-controlled goniometer to achieve accurate increments at each angular step. […]

B6C3F1 oocytes = test: Apoptosis in cultured B6C3F1 oocytes after microinjection
Procedure: (§1) Oocyte isolation and culture: Oocytes were collected after superovulation as described (Perez et al. 1997; Perez et al. 1999; Morita et al. 2000). Briefly, ovulated oocytes were denuded of cumulus cells by a 1-min incubation in 80 IU ml of hyaluronidase (Sigma, St. Louis, Mo.), followed by three washes with culture medium. All cultures were carried out in human tubal fluid (Irvine Scientific, Santa Ana, Calif.) supplemented with 0.5% BSA. The oocytes were maintained in 0.1 ml drops of culture medium under paraffin oil, and incubated at 37° C. in a humidified atmosphere of 5% CO2 and 95% air.
(§2) In-vitrofertilization and embryo culture: Female mice were superovulated as described above and cumulus-oocyte complexes from the indicated strains were mixed with capacitated sperm collected from adult male mice of the respective strain for in-vitro fertilization (Morita et al. 2000). […] Since zygotes progress to the blastocyst stage of development within 96 h and begin hatching, embryos were fixed at this time and stained with the DNA-binding dye Hoechst 33342 (Sigma) for light and fluorescence microscopic analysis of blastocyst cell number and quality. […] Analysis of DNA “comets” to generate quantitative data on the percent of undamaged versus damaged DNA was performed using the VisComet program (Impuls Computergestutzte Bildanalyse GmbH, Gilching, Germany). […]

AKR/J oocytes [3] = test: Comet assay of DNA damage in cultured AKR/J oocytes after microinjection; conditions: 6 h culture after microinjection, versus non-injected AKR/J oocytes
Procedure: as §1, §2

AKR/J zygotes = test: Preimplantation embryonic development of in-vitro fertilized AKR/J oocytes to the blastocyst stage
Procedure: In-vitrofertilization and embryo culture: Female mice were superovulated as described above and cumulus-oocyte complexes from the indicated strains were mixed with capacitated sperm collected from adult male mice of the respective strain for in-vitro fertilization (Morita et al. 2000). After 2 h, the cumulus-oocyte complexes were washed and maintained in KSOM medium (Specialty Media, Phillipsburg, N.J.) to determine fertilization rates and monitor embryonic progression. Since zygotes progress to the blastocyst stage of development within 96 h and begin hatching, embryos were fixed at this time and stained with the DNA-binding dye Hoechst 33342 (Sigma) for light and fluorescence microscopic analysis of blastocyst cell number and quality. Apoptosis analyses: Oocytes were evaluated as described (Perez et al. 1997; Perez et al. 1999; Mortia et al. 2000) for characteristics of apoptosis, including morphological changes (e.g., cellular condensation, budding and fragmentation) and biochemical alterations (i.e., DNA cleavage using Comet Assay Kit; Trevigen, Gaithersburg, Md.). Analysis of DNA “comets” to generate quantitative data on the percent of undamaged versus damaged DNA was performed using the VisComet program (Impuls Computergestutzte Bildanalyse GmbH, Gilching, Germany). […]

FVB oocytes [4] = test: Apoptosis in cultured FVB oocytes; conditions: microinjection; 24 h in vitro
Procedure: as §1, §2

AKR/J oocytes [5] = test: Apoptosis in cultured AKR/J oocytes; conditions: microinjection; versus non-injected and BSA-injected oocytes
Procedure: as §1, §2

## CC[C@H]1/C=C/C=C/C[C@@H](C)[C@H](O)[C@@](C)(O)C(=O)[C@@H](C)[C@H](O)[C@@H](C)C(=O)[C@@H](C)[C@H](O)[C@@H](C)/C=C/C(=O)O[C@@H]2[C@H](C)[C@H](CC1)O[C@]1(CC[C@H](C)[C@H](C[C@@H](C)O)O1)[C@H]2C [oligomycin]
FVB oocytes [1]
  reduction of ROS content: 70%

## CC(=O)C(=O)O [pyruvate]
FVB oocytes [2]
  reduction in number of abnormal mitochondria in FVB oocytes: more than 75%

## C=C(C)[C@H]1Cc2c(ccc3c2O[C@@H]2COc4cc(OC)c(OC)cc4[C@@H]2C3=O)O1 [rotenone]
FVB oocytes [1]
  reduction of ROS content: 54%

## antimycin-A
FVB oocytes [1]
  reduction of ROS content: 70%

## cytochrome c: cytochrome c microinjected into oocytes (6 pl of a 400 μM stock)
B6C3F1 oocytes; subsequent 24 h culture
  apoptosis in B6C3F1 oocytes: did not affect the incidence of apoptosis

B1: Rad51: recombinant Rad51 DNA repair protein (Kurumizaka et al. 1999), microinjected (protein, UniProt Q06609 2-339, looked up)
DNA repair protein RAD51 …: AMQMQLEANADTSVEEESFGPQPISRLEQCGINANDVKKLEEAGFHTVEAVAYAPKKELINIKGISEAKADKILAEAAKLVPMGFTTATEFHQRRSEIIQITTGSKELDKLLQGGIETGSITEMFGEFRTGKTQICHTLAVTCQLPIDRGGGEGKAMYIDTEGTFRPERLLAVAERYGLSGSDVLDNVAYARAFNTDHQTQLLYQASAMMVESRYALLIVDSATALYRTDYSGRGELSARQMHLARFLRMLLRLADEFGVAVVITNQVVAQVDGAAMFAADPKKPIGGNIIAHASTTRLYLRKGRGETRICKIYDSPCLPEAEAMFAINADGVGDAKD
AKR/J oocytes [3]
  extent of DNA damage: decreased the extent of DNA damage
AKR/J zygotes; microinjection into AKR/J zygotes, compared with C57BL/6 zygotes
  blastocyst formation rates of AKR/J zygotes: levels not different from those observed with C57BL/6 zygotes
AKR/J zygotes; microinjection into fertilized AKR/J oocytes, untreated less than 10%
  microinjected AKR/J zygotes completing development to the blastocyst stage: more than 30%
FVB oocytes [4]
  incidence of apoptosis in FVB oocytes: no effect
AKR/J oocytes [5]
  apoptosis in AKR/J oocytes: significantly suppressed apoptosis

B2: Smac/DIABLO: recombinant death-promoting protein released along with cytochrome c from mitochondria (protein, UniProt Q9NR28 22-239, looked up)
Diablo IAP-binding …: LCVPVVANFKKRCFSELIRPWHKTVTIGFGVTLCAVPIAQKSEPHSLSSEALMRRAVSLVTDSTSTFLSQTTYALIEAITEYTKAVYTLTSLYRQYTSLLGKMNSEEEDEVWQVIIGARAEMTSKHQEYLKLETTWMTAVGLSEMAAEAAYQTGADQASITARNHIQLVKLQVEEVHQLSRKAETKLAEAQIEELRQKTQEEGEERAESEQEAYLRED
B6C3F1 oocytes; 24 h culture
  increase in incidence of apoptosis in B6C3F1 oocytes: ~3 fold
